In patent publication US20190062438A1 (CSL, published 2019):

How the values were obtained:
Assay in all cases: SPR, kinetics, Fab over captured mutant
shCD131 S41A = target: T1, shCD131 S41A (human, UniProt P32927 17-438)
T1 construct: C-terminal 6xHis
T1 sequence: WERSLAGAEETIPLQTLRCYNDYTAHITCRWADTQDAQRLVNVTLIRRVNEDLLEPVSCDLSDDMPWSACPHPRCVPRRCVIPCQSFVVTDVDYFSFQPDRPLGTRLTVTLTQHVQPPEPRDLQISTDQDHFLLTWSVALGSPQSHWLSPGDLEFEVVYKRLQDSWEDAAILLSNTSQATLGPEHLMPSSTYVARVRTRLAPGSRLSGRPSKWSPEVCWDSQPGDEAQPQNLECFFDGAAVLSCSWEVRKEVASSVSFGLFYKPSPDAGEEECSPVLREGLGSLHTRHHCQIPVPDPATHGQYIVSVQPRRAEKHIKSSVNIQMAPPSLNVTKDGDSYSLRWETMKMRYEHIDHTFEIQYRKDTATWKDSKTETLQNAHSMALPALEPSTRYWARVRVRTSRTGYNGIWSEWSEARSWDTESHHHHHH
Protocol: (§1) As shβc is a dimer, kinetics assays were performed with shβc captured on the sensor surface, and purified Fab injected as the analyte. Avidity effects were avoided by the use of Fab rather than whole IgG.
(§2) shCD131 was captured on spots 1 and 5 of each flow cell for 2 minutes at a concentration of 0.4 μg/ml. […] For some analysis purified Fab was injected over each flow cell for 3 minutes and dissociation was monitored for a further 10 minutes. Regeneration of the surface was performed after each cycle with a 40 second injection of 25 mM glycine, pH 2.0. The analysis was performed with Fabs at several concentrations between 100 and 0.31 nM, with each concentration analyzed twice and in random order. The analysis was performed at a flow rate of 30 μl/min in HBS-EP buffer (10 mM Hepes, 150 mM NaCl, 3 mM EDTA, 0.005% Tween 20, pH 7.4) at 37° C. Responses from spots 2 and 4 of each flow cell, (in which shβc was not captured, but otherwise treated identically), were subtracted from those of spots 1 and 5 respectively to produce reference subtracted data. Reference subtracted responses from a blank injection comprising buffer alone were subtracted from the resultant sensorgrams to produce double referenced data suitable for kinetic analysis. Double-referenced sensorgrams were fitted using non-linear regression to a model describing 1:1 kinetics, including a term for mass transport limitation. The Rₘₐₓ value was fitted locally to account for slight deviations in the level of sCD131 captured, with association rate (kₐ), dissociation rate (kd) and equilibrium dissociation constant (KD) fitted globally.
(§3) Mapping of the shCD131 epitope was performed by measurement of the affinity of Fabs for various alanine point mutants of shCD131 essentially as described above, with the following exceptions. Each shCD131 mutant was captured for 120 seconds at concentrations between 1 and 5 μg/ml. For kinetic analysis, purified recombinant Fabs were injected for 2 minutes, and dissociation was monitored for a further 2 minutes. […] Fab concentrations ranged from 16 μM to 3.9 nM in two-fold dilutions.

shCD131 H42A = target: T2, shCD131 H42A (human, UniProt P32927 17-438)
T2 construct: C-terminal 6xHis
T2 sequence: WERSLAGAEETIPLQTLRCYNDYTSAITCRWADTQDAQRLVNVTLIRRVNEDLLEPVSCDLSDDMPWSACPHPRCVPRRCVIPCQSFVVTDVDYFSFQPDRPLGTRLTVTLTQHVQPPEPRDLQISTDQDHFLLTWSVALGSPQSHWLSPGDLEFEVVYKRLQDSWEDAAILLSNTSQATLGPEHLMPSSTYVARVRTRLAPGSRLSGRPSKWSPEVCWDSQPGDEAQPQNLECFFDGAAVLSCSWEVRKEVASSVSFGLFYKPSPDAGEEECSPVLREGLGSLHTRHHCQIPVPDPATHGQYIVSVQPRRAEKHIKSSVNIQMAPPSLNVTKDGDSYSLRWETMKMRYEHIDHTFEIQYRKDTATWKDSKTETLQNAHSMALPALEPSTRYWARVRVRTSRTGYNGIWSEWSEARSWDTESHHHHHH
Protocol: as §1, §2, §3

shCD131 T106A = target: T3, shCD131 T106A (human, UniProt P32927 17-438)
T3 construct: C-terminal 6xHis
T3 sequence: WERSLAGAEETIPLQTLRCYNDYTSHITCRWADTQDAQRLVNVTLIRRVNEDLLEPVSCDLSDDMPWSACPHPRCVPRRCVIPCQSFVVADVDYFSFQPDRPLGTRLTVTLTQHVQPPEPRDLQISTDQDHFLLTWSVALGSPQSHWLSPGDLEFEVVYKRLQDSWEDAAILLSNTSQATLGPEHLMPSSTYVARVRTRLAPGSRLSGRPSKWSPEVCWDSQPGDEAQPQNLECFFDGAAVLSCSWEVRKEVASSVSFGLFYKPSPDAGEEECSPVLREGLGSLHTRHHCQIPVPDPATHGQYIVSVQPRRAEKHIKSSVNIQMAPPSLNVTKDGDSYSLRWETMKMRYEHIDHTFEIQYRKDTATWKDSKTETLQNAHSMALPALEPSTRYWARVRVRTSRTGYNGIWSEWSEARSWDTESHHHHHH
Protocol: as §1, §2, §3

shCD131 R418A = target: T4, shCD131 R418A (human, UniProt P32927 17-438)
T4 construct: C-terminal 6xHis
T4 sequence: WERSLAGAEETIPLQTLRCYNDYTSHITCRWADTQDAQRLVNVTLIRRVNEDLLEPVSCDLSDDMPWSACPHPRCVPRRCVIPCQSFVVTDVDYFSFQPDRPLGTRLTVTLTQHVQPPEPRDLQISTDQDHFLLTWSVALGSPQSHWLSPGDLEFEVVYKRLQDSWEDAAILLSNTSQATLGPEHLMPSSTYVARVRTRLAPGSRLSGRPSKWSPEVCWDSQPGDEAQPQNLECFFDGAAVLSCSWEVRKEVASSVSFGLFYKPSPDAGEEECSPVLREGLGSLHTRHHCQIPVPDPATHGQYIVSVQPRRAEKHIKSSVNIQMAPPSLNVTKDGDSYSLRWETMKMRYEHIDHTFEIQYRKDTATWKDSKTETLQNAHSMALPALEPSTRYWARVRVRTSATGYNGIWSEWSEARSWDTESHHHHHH
Protocol: as §1, §2, §3

B1: 9A2 Fab (Fab, V domains shown)
VH: EVQLLESGGGLVQPGGSLRLSCAASGFTFSHYHMLWVRQAPGKGLEWVSSIRSSGGFTYYADSVKGRFTISRDNSKNTLYLQMNSLRAEDTAVYYCARFYDSFFDIWGQGTMVTVSS
VL: DIQMTQSPSSVSASVGDRVTITCRASQGISSWLAWYQQKPGKAPKLLIYAASSLQSGVPSRFSGSGSGTDFTLTISSLQPEDFATYYCQQANSFPITFGQGTRLEIKR
notes: also called recombinant Fab of 9A2
- Kd (shCD131 S41A): 56 nM
- Kd (shCD131 H42A): 41 nM
- Kd (shCD131 T106A): 5.8 nM
- Kd (shCD131 R418A): 70 nM
